The target in the test is SARS-CoV-2 S receptor-binding domain (RBD) (SARS-CoV-2, UniProt P0DTC2). The test is described as follows: SPR.

B1: S2E12 Fab fragment (Fab, V domains shown)
VH: not shown
VL: DIVLTQTPGTLSLSPGERATLSCRASQSVSSSYLAWYQQKPGQAPRLLIYGASSRATGIPDRFSGSGSGTDFTLTISRLEPEDFAVYYCQQYVGLTGWTFGQGTKVEIK
Take B1: the Kd came out at 1.6 nM.

B2: S2M11 Fab fragment (Fab, V domains shown)
VH: EVQLVQSGAEVKKPGASVKVSCKASGYTFTGYYMHWVRQAPGQGLEWMGWINPISSGTSYAQTFQGRVTMTSDTSITTAYMELSRLRSDDTAVYYCARAAPFYDFWSGYSYFDYWGQGTLVTVSS
VL: not shown
On to B2, for which the Kd is 66 nM.

Source of the values: publication PMC7857395 (2020).
